Target: T1, ILT4 receptor on dendritic cells of ILT4 transgenic mice (UniProt Q8N423 22-597, limits assumed)
T1 construct: whole, on cells; also called LILRB2; CD85d
Assay: immunoprecipitation with anti-ILT4 antibody, immunoblot with anti-Csk antibody
Protocol: The pellets from 5×10⁶ untreated DCs and DCs treated with HLA-G ligands and LPS were lysed in 1 ml RIPA buffer and precleared several times with Sepharose-coupled protein A (50% wt/vol slurry). Proteins were immunoprecipitated with saturating amounts of anti-ILT4 mAb and protein G Sepharose (Amersham Biosciences). Immunoprecipitation experiments were performed using several ILT4-specific antibodies, including polyclonal anti-ILT4 (C-12), anti-ILT4 (N-14), anti-ILT4 (P-14), anti-ILT (H-300), and anti-ILT4 (42D1) mAb (all from Santa Cruz Biotechnology, Santa Cruz, Calif.). […] The immunoblot was reprobed with anti-SHP-1 and anti-SHP-2 antibodies (both Upstate), and anti-Csk antibody (Santa Cruz Biotechnology). Signals were developed using the enhanced chemoluminescence (ECL) system (Amersham Biosciences). In some cases, densitometric scans of bands were obtained to determine the extent of ILT4-mediated signal inhibition.

T1 sequence (Q8N423 22-597 limits assumed): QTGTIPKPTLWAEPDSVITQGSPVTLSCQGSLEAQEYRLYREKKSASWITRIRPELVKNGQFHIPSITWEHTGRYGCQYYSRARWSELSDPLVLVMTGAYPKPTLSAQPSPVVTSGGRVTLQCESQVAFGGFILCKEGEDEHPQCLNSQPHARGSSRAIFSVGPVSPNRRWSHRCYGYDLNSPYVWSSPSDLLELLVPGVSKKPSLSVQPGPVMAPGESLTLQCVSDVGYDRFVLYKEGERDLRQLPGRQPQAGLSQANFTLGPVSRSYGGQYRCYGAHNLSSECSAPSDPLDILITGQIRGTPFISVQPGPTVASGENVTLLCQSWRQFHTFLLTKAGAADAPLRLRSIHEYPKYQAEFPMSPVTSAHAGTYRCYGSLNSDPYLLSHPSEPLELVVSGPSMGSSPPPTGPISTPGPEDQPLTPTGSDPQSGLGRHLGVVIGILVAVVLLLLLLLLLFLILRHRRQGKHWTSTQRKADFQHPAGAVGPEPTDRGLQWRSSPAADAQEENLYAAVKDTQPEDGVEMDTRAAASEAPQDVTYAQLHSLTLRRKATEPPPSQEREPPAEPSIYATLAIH

- binding result: no binding
B1: C-terminal Src kinase (Csk) (enzyme, mouse, UniProt P41241 2-450, looked up)
chain: SAIQAAWPSGTECIAKYNFHGTAEQDLPFCKGDVLTIVAVTKDPNWYKAKNKVGREGIIPANYVQKREGVKAGTKLSLMPWFHGKITREQAERLLYPPETGLFLVRESTNYPGDYTLCVSCEGKVEHYRIMYHASKLSIDEEVYFENLMQLVEHYTTDADGLCTRLIKPKVMEGTVAAQDEFYRSGWALNMKELKLLQTIGKGEFGDVMLGDYRGNKVAVKCIKNDATAQAFLAEASVMTQLRHSNLVQLLGVIVEEKGGLYIVTEYMAKGSLVDYLRSRGRSVLGGDCLLKFSLDVCEAMEYLEGNNFVHRDLAARNVLVSEDNVAKVSDFGLTKEASSTQDTGKLPVKWTAPEALREKKFSTKSDVWSFGILLWEIYSFGRVPYPRIPLKDVVPRVEKGYKMDAPDGCPPAVYEVMKNCWHLDAATRPTFLQLREQLEHIKTHELHL

From patent publication US20110135672A1 (MEDICAL COLLEGE OF GEORGIA RESEARCH INSTITUTE INC GEORGIA, published 2011)
